From US8361484B2, “Polymer systems for lung volume reduction therapy” (Aeris Therapeutics, Inc., priority 2006, dated 2013)

Test: PVA hydrogel durability in phosphate buffered saline pH 7.4, integrity checked by periodic inversion
Type: physicochemical
Details: additive at 10%; 4% borate; PBS pH 7.4, room temperature
Experimental: The effect of the PVA (99% hydrolysis rate; average molecular weight 100K) concentration on gel durability was evaluated by first aliquotting 0.2 mL of a 4% borate solution into bottom of 14 mL tube. Then 1.8 mL of various PVA solutions of 2-5% concentrations were added by vigorous injection through a 3 mL syringe with an 18G needle. Three tubes were prepared for of each concentration and cured at room temperature for one hour to insure complete polymerization. 8 mL of phosphate buffered saline, pH 7.4, were added to each tube, covered and incubated at room temperature. The integrity of the gels was checked by periodic inversion.
The effect of additives on the durability of the PVA gel (99% hydrolysis rate; average molecular weight 100K) was evaluated by first aliquotting 0.2 mL of a 4% borate solution into bottom of 14 mL tube. Then 1.8 mL of PVA (5%) and additive containing solutions of 2-5% concentrations were added by vigorous injection through a 3 mL syringe with an 18G needle. Three tubes were prepared for of each concentration and cured at room temperature for one hour to insure complete polymerization. 8 mL of phosphate buffered saline, pH 7.4, were added to each tube, covered and incubated at room temperature. The integrity of the gels was checked by periodic inversion. […]

For albumin, the “Effect of additive on durability of 5% PVA hydrogels” value was “increase the durability”.
